Assay results as given in patent US8809529B2, “Imidazo[1,2-α]pyrazine derivatives” (Promega Corporation, priority 2010, dated 2014).
Read-outs that look alike come from different tables or passages of the source.

Key:
[1] = Enzyme kinetics of OgLuc variants (Km, Vmax); format: biochemical, E. coli; settings: PBI-3939, average of three replicates
Protocol: Using methods known in the art, enzyme kinetic assays measuring luminescence were performed with the lysates of E. coli containing N and the IV variants 15C1, 9B8, 9F6, and 9A3. […] Two fold serial dilutions of PBI-3939 in the assay buffer described previously in Example 26 were assayed with the diluted lysates. […] Variants 9B8 and 9F6 had higher Km values compared to IV while Km values for the other variants were unchanged.
Luminescence was measured on a TECAN® INFINITE® F500 luminometer.
The enzyme kinetics values were determined for the OgLuc variants as described previously, except luminescence was measured using a GLOMAX® luminometer. Three replicates were used for each variant.

[2] = target: T1, caspase-3 (Homo sapiens, UniProt P42574); assay: Caspase-3 bioluminescent assay with L27V and PBI-3741; format: biochemical; settings: luminescence, 3 hrs at room temperature
T1 sequence (P42574 29-175 limits assumed): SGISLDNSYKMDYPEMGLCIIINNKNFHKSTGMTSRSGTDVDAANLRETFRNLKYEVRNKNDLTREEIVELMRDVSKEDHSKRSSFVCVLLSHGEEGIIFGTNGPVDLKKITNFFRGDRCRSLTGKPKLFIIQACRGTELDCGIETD
T1 sequence (P42574 176-277 limits assumed): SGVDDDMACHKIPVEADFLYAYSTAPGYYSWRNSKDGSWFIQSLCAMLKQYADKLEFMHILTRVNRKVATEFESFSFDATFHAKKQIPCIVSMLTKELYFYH
Protocol: (§1) 2. The L27V variant was used in a bioluminescent assay using a pro-coelenterazine substrate comprising the DEVD caspase-3 cleavage sequence “DEVD” disclosed as SEQ ID NO: 581). Purified caspase-3 enzyme (1 mg/mL) in 100 mM MES pH 6 (50 μL) was mixed with 227 nM L27V02 variant and 47 μM PBI-3741 (z-DEVD-coelenterazine-h (“DEVD” disclosed as SEQ ID NO: 581)) in assay buffer (50 μL). Reactions were incubated for 3 hrs at room temperature, and luminescence detected as previously described. The assay with the L27V variant was compared to a firefly luciferase version of the assay, CASPASE-GLO® 3/7-Assay system (Caspase-Glo; Promega Corp.).

[3] = system: caspase-3; assay: as above; format: biochemical; settings: luminescence, 3 hrs at room temperature
Protocol: as §1

[4] = Km of L27V reversion variants for PBI-3939; format: biochemical
Protocol: Relative activities <1 indicate the reversion is detrimental compared to the residue at that site in the L27V variant. Relative activities >1 indicate the reversion is favorable for activity compared to the residue at that site in the L27V variant. Some additional data on these mutants indicated the following: 166K, 54F, 54A and L27V were tested for thermal stability. The T1/2 60° C. for 166K, 54F, and 54A were 87, 74, and 33%, respectively, indicating these substitutions cause a reduction in thermal stability. […] This indicates higher substrate affinity for L27V, particularly for the position 54 substitutions.

[5] = system: cAMP-response element (CRE); assay: cAMP transcriptional reporter in HEK293 cells (Example 36); settings: for fold-induction: FSK 5 hrs
[6] = system: antioxidant response element (ARE); assay: ARE transcriptional reporter, reverse transfection, HEK293 cells; format: cell-based, human; settings: 24 h, 100 ng DNA
[7] = system: CRE; assay: CRE transcriptional reporter, bulk transfection, HEK293 cells; format: cell-based, human
Protocol: The transcriptional reporter containing […] and 9B8 opt-P was used in the bulk transfection of HeLa cells
HEK293, NIH3T3, or HeLa cells were plated to a single well of a 6-well tissue culture plate the day before transfection at a density of 4.5×10^5 cells/well in 3 mL complete medium (DMEM+10% FBS+1×NEAA+1× sodium pyruvate) for HEK293 cells, 3×10^5 cellsNvell in 3 mL complete medium (DMEM+10% fetal calf serum (FCS)+1×NEAA+1× sodium pyruvate) for NIH3T3 cells, or 9.9×10^5 cells/well in 3 mL complete medium (DMEM+10% FBS+1×NEAA) for HeLa cells. Cells were grown overnight at 37° C.
3,300 ng of reporter plasmid DNA in 155 4 OPTI-MEM® was mixed with 9.9 μL FUGENE® HD transfection reagent, vortexed briefly, and incubated at room temperature for 10 min. The CRE transcriptional reporters were used to transfect HEK293 and NIH3T3 cells. The HRE transcriptional reporters were used to transfect HeLa cells. The reporter mixture was added to cells and mixed by gentle rocking followed by incubation at 37° C. for 6 hrs (HEK293 and NIH3T3) or 3 hrs (HeLa). Cells were then trypsinized and resuspended in medium (DMEM+10% FBS+1×NEAA+1× sodium pyruvate for HEK293 cells, DMEM+10% FCS+1×NEAA+1× sodium pyruvate for NIH3T3 cells, or DMEM+10% FBS+1×NEAA for HeLa cells), followed by plating to the individual wells of a 96-well plate (20,000 cells/100 μL for HEK293, 10,000 cells/100 4 for NIH3T3, or […] for HeLa) and incubated at 37° C. overnight.
FSK (CRE stimulator) or 17-AAG (HRE stimulator; 17-Allylamino-demethoxy geldanamycin) in OPTI-MEM® was added to the cells (10 nM or 10 μM final concentration for FSK; 1 nM or 1 μM final concentration for 17-AAG) and incubated at 37° C. for 4 hrs (FSK) or 6 hrs (17-AAG). Plates were removed from the incubator and allowed to equilibrate to room temperature for 25 min. Cells were lysed with 100 μL lytic reagent as described above for the forward transfection. Luminescence was measured on a GLOMAX® Luminometer.

[8] = format: physicochemical, E. coli; settings: for ½ life: 50° C.
Protocol: Lysates of E. coli containing 15C1, 9B8, 9F6, 8A3 or IV and E. coli expressing hRL (SEQ ID NO: 30 and 31) were prepared from induced cultures as described previously. Lysate samples were diluted 1:1000 with a buffer containing 10 mM HEPES pH 7.5 with 0.1% gelatin. Diluted lysate (100 μL) samples, in replicate 96-well plates, were incubated at 50° C. At different time points, plates were placed at −70° C. (minus seventy degrees Celsius). Prior to measuring the luminescence as described previously, each plate was thawed at room temperature, i.e., 22° C., for 10 min. Samples (10 μL of each thawed sample) were assayed using native coelenterazine as a substrate. Luminescence was measured immediately after addition of assay buffer for each time point plate. The half-life of the protein, which indicated protein stability, was calculated from the luminescence data for each time point using methods known in the art.

Row | Molecule | Km [1] [µM] | Vmax [1] | (+) caspase [2] | (−) caspase [3] | Km [4] [µM] | induced luminescence higher than Luc2 transcriptional reporter [5] | induced luminescence higher than induced Renilla transcriptional reporter [5] | fold-induction ([5]; 30 ng of DNA) | fold-induction ([5]; 100 ng of DNA) | RLU (20 μM sulphoraphane) [6] | RLU (20 μM tBHQ) [6] | baseline ([7]; HEK293, 10 nM FSK, 4 h) | RLU (10 mM FSK) ([7]; HEK293, 4 h) | Response ([7]; HEK293, FSK) | ½ life [8] [h] | ½ life ([8]; native coelenterazine as substrate) [h] | % remaining at t = 4 hrs ([8]; 4 h) [%]
1 | L27V: 9B8 opt+K33N variant with L27V, T39T, K43R, Y68D (protein) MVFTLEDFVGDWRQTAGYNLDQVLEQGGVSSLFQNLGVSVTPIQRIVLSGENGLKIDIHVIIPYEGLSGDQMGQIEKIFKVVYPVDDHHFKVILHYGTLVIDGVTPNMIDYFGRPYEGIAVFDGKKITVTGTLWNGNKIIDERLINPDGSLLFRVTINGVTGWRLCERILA | 13.9 | 190,000,000 RLU/0.5 sec | 11,532 | 803 | 18 | – | – | – | – | – | – | – | – | – | – | – | –
2 | 9B8 opt: codon optimized version of the 9B8 variant (protein) MVFTLEDFVGDWRQTAGYNLDQVLEQGGLSSLFQKLGVSVTPIQKIVLSGENGLKIDIHVIIPYEGLSGYQMGQIEKIFKVVYPVDDHHFKVILHYGTLVIDGVTPNMIDYFGRPYEGIAVFDGKKITVTGTLWNGNKIIDERLINPDGSLLFRVTINGVTGWRLCERILA | – | – | – | – | – | approximately 1.5 logs | approximately 2.5 logs | 360 | 109 | 89,600,000 RLU | 120,000,000 RLU | 39,700,000 | 654,000,000 RLU | 16 | – | – | –
3 | 9B8: IV variant with Q18L, F68Y, L72Q, M75K; in Tables 12, 22, 23, 26, 27 “9B8” stands for 9B8 opt (protein) MVFTLEDFVGDWRQTAGYNLDQVLEQGGLSSLFQKLGVSVTPIQKIVLSGENGLKIDIHVIIPYEGLSGYQMGQIEKIFKVVYPVDDHHFKVILHYGTLVIDGVTPNMIDYFGRPYEGIAVFDGKKITVTGTLWNGNKIIDERLINPDGSLLFRVTINGVTGWRLCERILA | 7.7 | 86,000,000 RLU/0.5 sec | – | – | – | – | – | – | – | – | – | – | – | – | 5.8 | 5.777 | 61
